Test results reported in PMC10836720.

Molecular target: A. baumannii 118362 Family 2A encapsulin shell protein (J517_0527) (Acinetobacter baumannii 118362)
Test: cryo-EM structure

## A. baumannii 118362 Family 2A encapsulin shell protein (J517_0527) (natural protein)
  stoichiometry N: 60 subunits
